# Laboratory results reported in the RNAGym collection of RNA variant scans (doi:10.7554/elife.90254).
# B1: OR4K15 (parent)
# chain: GUUAACGGUCAUAGGCCAUGGAAACUAGGAGCACCAUUUCGCUGCCAGUGAAGAAAUGAACAAAGAAAAUCUGGGCCAGGCAGGCAUCAAAAGAAAUAGUCUUGCGCUCAACCAGAAAGUCUGUAAUCAUUUUAAGGGUA
# Variants of: B1
# Assay: self-cleavage, relative activity (ratio to wild type); higher = more cleavage; in vitro, sequencing; the parent is a self-cleaving ribozyme
row,Variant,self-cleavage
1,A92U U100C,2.23
2,A96U G138U,1.75
3,A96G A126U,1.49
4,A94U A116G,0.48
5,A94U A116C,0.07
6,A92G U139C,1.75
7,A91G U130C,0.54
8,A94G U102A,0.96
9,A92U G123U,2.07
10,A91U A118G,0.94
11,A95G A135G,2.42
12,A95G A135C,2.68
13,A95G A135U,1.45
14,A96G A118U,0.79
15,A94C U100C,2.31
16,A91U A110U,0.82
17,G93U A134G,1.18
18,A96G C121U,2.57
19,A94G A114G,0.36
20,A96U U102A,1.08
21,A96U U102C,2.54
22,A91G A114C,0.02
23,A95U U122C,1.44
24,A94G G106A,0

row,Variant,self-cleavage
1,A95G C105G,0.03
2,A95G C105U,0.43
3,A91U A125G,0.38
4,A94G A126G,1.3
5,A94G A126U,1.08
6,A94G A126C,0.82
7,A92U U130C,1.59
8,A94U G119A,2.29
9,A94U A125C,1.08
10,A96C U102C,2.16
11,A94U A118C,1.53
12,A94U A118G,1.51
13,A90U U127C,1.37
14,A92G U102C,1.8
15,A92G U102A,0.61
16,A92G U102G,0.61
17,A96C A118G,0.95
18,A94G C101A,0.3
19,A91U A98G,0.61
20,A92G A94G,1.49
21,A90U U103C,1.27
22,A91G U97A,1.05
23,A94G A135U,1.8
24,A90U U131C,2.68

row,Variant,self-cleavage
1,A96G U130C,0.97
2,A91U U127C,0.87
3,A92G A129G,0.74
4,A91C,1.53
5,A91G,0.97
6,A91U,1.74
7,A96C A116G,0.33
8,A95U C105U,0.45
9,U97C A114G,0.13
10,U97A U139A,1.2
11,A96G G138U,1.33
12,A96C A117G,1.87
13,A94U A126G,1.84
14,A92G A126C,0.94
15,A96U U97C,1.9
16,A95G A117G,2.65
17,A95G A117U,1.7
18,U97C A117G,2.06
19,A91U A94G,1.54
20,A95G A96U,0.7
21,A94U A98G,1.06
22,A91G A95C,0.94
23,A91G A95G,1.76
24,A94U U120A,2.18

row,Variant,self-cleavage
1,A92G A118G,1.26
2,A90G U120C,0.58
3,U97A A117G,2.09
4,A90U A135G,2.04
5,A96U A126G,1.58
6,A96C A126G,0.77
7,A92U A118G,1.02
8,A90U A92G,1.38
9,A91U U132C,1.62
10,U97A A98U,2.29
11,A96G U124C,1.22
12,A94U U122C,2.05
13,A95G G136A,2
14,A92U U131C,1.36
15,A91G U102A,0.67
16,A96C U100A,0.96
17,A96C U100C,2.01
18,A96G A98C,0.63
19,A96G A98U,2.3
20,A96G A98G,0.91
21,A90U A134U,1.96
22,A90U A134G,1.26
23,A94G A140U,0.72
24,A95C A96G,1.13

row,Variant,self-cleavage
1,A92U U102C,2.01
2,U97A A114G,0.64
3,A92G G123A,2.51
4,A95G A111C,0.02
5,A95G A111G,0.03
6,A95G A111U,0.15
7,A91G G99A,0.21
8,A92U A114G,0.17
9,A92U A114U,0.14
10,A96U A118G,1.17
11,U97C A98C,0.75
12,A96U A129G,1.36
13,A92G A125C,1.44
14,A90U U132A,0.72
15,A94U G106U,0.01
16,A94U U103C,0.46
17,U97C A126U,0.44
18,A90G U124A,0.47
19,A91C A114U,0.05
20,A95G G138C,2.62
21,A95G U120C,1.82
22,A95G U120A,2.78
23,A94U A135G,2.33
24,A96U G106A,0.01

row,Variant,self-cleavage
1,A91G U139C,1.71
2,A91G U139A,1.64
3,A95U U132C,1.4
4,A92G U122A,1.96
5,A92G U122G,2.31
6,A91G C109U,0.4
7,A92G U120C,0.64
8,A94G U132C,1.52
9,A94C A116U,0.18
10,A91G U108A,0.01
11,G93C A98G,1.57
12,U97C G115U,0.03
13,A94G C105U,0.38
14,A91G A117G,1.48
15,A91G A117C,0.67
16,A91G U103C,0.46
17,A96G C113G,0.02
18,A96G A111G,0.02
19,A96G A111U,0.11
20,A95U U130C,0.47
21,A92G C109U,0.59
22,A96G U132C,1.21
23,A96G U132G,1.85
24,A94U U127C,1.21

row,Variant,self-cleavage
1,A96G A117U,0.89
2,A94G A95U,2.66
3,A96G A140G,1.47
4,A92U U139C,1.43
5,A92G A117G,1.47
6,A92G A117U,0.8
7,A94G A96G,1.35
8,A94G A96U,0.68
9,A96G A116U,0.24
10,U97C U102A,0.47
11,U97C U102C,2.38
12,A96G G106C,0.02
13,A96G G106U,0.01
14,A91G A140G,1.21
15,A94U A129U,1.22
16,A95U A134G,1.48
17,A91C A98G,0.56
18,A90U A129G,1.51
19,A95U A98G,1.46
20,A96C G104A,0.02
21,A92G A134U,2.03
22,A95G C101U,1.28
23,A95G C101A,0.52
